Article PMC9772344

Assays:
Conditions in all cases: transfected HeLa cells; n = 3 per group; parent: est. 1.0; read off a plot
[1] = biological target: Orai1 (UniProt Q96D31); test: Co-IP (GLT-1 capture antibody, immunoblot for Orai1, band quantification)
[2] = biological target: stromal-interacting molecule 1 (STIM1) (UniProt Q13586); test: Co-IP (STIM1 capture antibody, immunoblot for GLT-1, band quantification)
[3] = biological target: stromal-interacting molecule 1 (STIM1) (UniProt Q13586); test: Co-IP (GLT-1 capture antibody, immunoblot for STIM1, band quantification)

Sequence of glutamate transporter GLT-1 (excitatory amino acid transporter 2, EAAT2), WT plasmid (P43006 whole entry, stated change not applied): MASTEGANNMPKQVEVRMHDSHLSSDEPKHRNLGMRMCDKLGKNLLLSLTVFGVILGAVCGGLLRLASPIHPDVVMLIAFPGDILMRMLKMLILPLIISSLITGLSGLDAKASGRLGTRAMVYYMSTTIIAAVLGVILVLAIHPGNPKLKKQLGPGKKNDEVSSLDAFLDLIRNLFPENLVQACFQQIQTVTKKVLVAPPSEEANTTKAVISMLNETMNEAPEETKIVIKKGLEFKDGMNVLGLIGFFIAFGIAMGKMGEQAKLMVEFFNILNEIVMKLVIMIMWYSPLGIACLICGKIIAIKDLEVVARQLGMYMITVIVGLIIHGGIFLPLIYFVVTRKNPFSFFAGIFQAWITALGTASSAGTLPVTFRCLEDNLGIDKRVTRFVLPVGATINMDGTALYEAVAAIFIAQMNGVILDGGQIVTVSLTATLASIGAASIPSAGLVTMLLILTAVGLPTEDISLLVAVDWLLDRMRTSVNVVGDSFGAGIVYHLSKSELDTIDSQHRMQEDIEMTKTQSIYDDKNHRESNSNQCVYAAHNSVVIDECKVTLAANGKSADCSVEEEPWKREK
Sequence of stromal-interacting molecule 1 (STIM1) (Q13586 23-685): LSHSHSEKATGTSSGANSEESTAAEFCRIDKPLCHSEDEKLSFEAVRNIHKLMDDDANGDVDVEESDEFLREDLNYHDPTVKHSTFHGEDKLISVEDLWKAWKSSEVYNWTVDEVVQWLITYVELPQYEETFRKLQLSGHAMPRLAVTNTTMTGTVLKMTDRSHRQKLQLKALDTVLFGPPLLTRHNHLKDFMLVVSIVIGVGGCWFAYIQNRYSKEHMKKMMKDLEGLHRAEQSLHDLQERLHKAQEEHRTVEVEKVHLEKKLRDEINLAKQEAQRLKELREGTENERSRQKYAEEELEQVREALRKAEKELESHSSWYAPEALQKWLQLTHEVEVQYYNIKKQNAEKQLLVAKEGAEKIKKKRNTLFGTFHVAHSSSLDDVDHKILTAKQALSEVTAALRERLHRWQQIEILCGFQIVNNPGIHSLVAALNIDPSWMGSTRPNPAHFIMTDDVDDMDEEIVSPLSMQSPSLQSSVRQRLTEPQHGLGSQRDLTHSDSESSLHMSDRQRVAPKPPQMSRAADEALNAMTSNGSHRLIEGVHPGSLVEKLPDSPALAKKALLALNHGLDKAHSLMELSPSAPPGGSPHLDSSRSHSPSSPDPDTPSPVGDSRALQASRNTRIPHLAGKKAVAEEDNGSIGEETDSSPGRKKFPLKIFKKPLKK
Sequence of Orai1 (Q96D31 whole entry): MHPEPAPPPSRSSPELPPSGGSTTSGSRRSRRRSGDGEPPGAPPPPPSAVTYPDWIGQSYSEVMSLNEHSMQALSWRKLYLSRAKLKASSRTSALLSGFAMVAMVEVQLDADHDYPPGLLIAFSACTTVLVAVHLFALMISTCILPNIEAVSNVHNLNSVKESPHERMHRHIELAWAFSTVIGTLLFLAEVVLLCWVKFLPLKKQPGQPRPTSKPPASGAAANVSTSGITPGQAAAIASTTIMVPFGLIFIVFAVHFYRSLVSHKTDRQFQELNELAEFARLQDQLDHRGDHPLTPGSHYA

Question: Which response (relative band intensity) [1] does the source give for “glutamate transporter GLT-1 (excitatory amino acid transporter 2, EAAT2), WT plasmid (from UniProt P43006) P289R” here?
Answer: Its response (relative band intensity) is 0.15.

Question: What about the response (relative band intensity) [2] of the same substance?
Answer: The response (relative band intensity) was 0.1.

Question: What about the response (relative band intensity) [3] of the same substance?
Answer: Its response (relative band intensity) is 0.1.
